Test results taken from publication PMC2234471 (The Journal of General Physiology, 2003).

Target: purified recombinant vertebrate CaM ( ("vertebrate"), UniProt P0DP23 1-149)
Assay: native gel or EMSA

**Q.** Does SIRAVCVMRFLVSKRKFKESLR [IQ2 peptide of KCNQ2 (508–530)] bind?
**A.** Result: binds

**Q.** Does AIRAVRILQFRLYKKKFKETLR [IQ2 peptide of KCNQ3 (481–503)] bind?
**A.** Result: binds
